Source: paper PMC4186839, “Streptomyces coelicolor SCO4226 Is a Nickel Binding Protein” (PLoS ONE, 2014)

Molecular target: the molecule itself
Assay: crystal structure; Se-Met labelled apo-SCO4226 crystals (1.30 Å) and the same crystals soaked about 1 hr in 0.8 M sodium citrate pH 6.5 with 0.8 M NiSO4 (Ni-SCO4226, 2.04 Å); space group P21; one dimer in each asymmetric unit

B1: SCO4226 (natural protein, Streptomyces coelicolor A3(2), UniProt Q9FCE4 1-82, looked up)
chain: MAHFMDVHRGMHGITSDQLHQAHQADLAVEKDENVHFEQAWADPASGTIYCLSEGPSAEAVQRVHERAGHKADEIHEVPLSA
modifications: seleno-methionine in place of methionine (Se-Met substituted protein)
notes: SCO4226, 82-residue hypothetical protein encoded by the open reading frame SCO4226 of Streptomyces coelicolor A3(2); residues up to Ala82 (C-terminal carboxylate) are seen in the structure; No tag is named here; also called apo-SCO4226; Se-apo-SCO4226; source: E. coli B834 (DE3), Se-Met labelled, purified (nickel-chelating Sepharose, Superdex 75 gel filtration)
  stoichiometry N: 2
